B1: TOX high mobility group box family member 3, residues 256 to 323; numbered along this chain, O15405 (parent)
chain: QKPVSAYALFFRDTQAAIKGQNPNATFGEVSKIVASMWDSLGEEQKQVYKRKTEAAKKEYLKALAAYR

Variants of: B1
Assay: abundance fitness (aPCA) (normalised: wild type 0, dead -1); higher = more abundant; growth selection in yeast, the domain comes from the species named
Settings: Homo sapiens

Abundance fitness: each site, then its substitutions
A6: E 0.156; F -0.661; G -0.168; H -0.597; I -0.833; L -0.37; M -0.316; P 0.054; Q -0.185; R -0.808; S -0.075; T -0.6; V -0.601; W -0.848; Y -0.34
Y7: A -0.498; C -0.585; E -0.263; F -0.339; G -0.33; H -0.199; I -0.48; K -0.033; L -0.547; N 0.007; P -0.452; Q -0.212; R -0.244; S -0.404; T -0.679; V -0.651; W -0.462
A8: C 0.163; D 0.039; E -0.376; F -0.33; G -0.179; H 0.136; I -0.477; K 0.009; L -0.235; M 0.219; P -0.464; Q 0.09; R -0.027; S 0.002; T -0.196; V -0.123; W -0.252; Y -0.458
L9: A -0.042; C -0.106; D -0.217; E 0.262; F -0.31; G -0.303; H -0.394; I 0.233; K -0.425; M -0.035; N -0.705; P -1.08; Q 0.053; R -0.498; S 0.077; T -0.039; V -0.224; W -0.218
F10: A -0.981; D -0.752; E -0.635; G -0.957; I -0.98; K -0.946; L -0.744; N -0.916; P -0.572; Q -0.71; R -0.751; S -0.267; T -0.53; W -0.957; Y 0.047
F11: A -0.19; C -0.302; D -0.746; G -0.915; I -0.676; K -0.205; L -0.176; M -0.101; N -0.19; P -1.17; Q -0.171; R -0.139; S -0.264; V -0.14; W -0.134; Y -0.278
R12: A -0.116; C -0.457; D -0.526; E 0.054; G -0.223; H 0.062; I -0.221; K 0.022; M -0.052; N 0.168; P -1; Q -0.057; S -0.113; T -0.146; V -0.433; W -0.587; Y -0.135
D13: A -0.259; C -0.314; E 0.11; F -0.494; G -0.855; H -0.235; I -0.442; K -0.646; N -0.462; S -0.516; T -0.247; V -0.344
T14: A -0.29; C -0.781; D -0.704; E -0.292; F -0.99; G -0.709; H -0.453; I -0.326; K 0.066; L -0.314; M 0.048; N -0.278; P -0.62; Q 0.146; R -0.03; S 0.087; V -0.147; W -0.364
Q15: A -0.512; C -0.178; E -0.065; F 0.022; G -0.6; H -0.084; I 0.027; K -0.109; L -0.13; M -0.068; N -0.212; P -1.08; R -0.309; S -0.538; V -0.173; W -0.194; Y 0.367
A16: C -0.376; D 0.068; E 0.158; F -0.164; G -0.209; H -0.09; I -0.071; K 0.009; L -0.178; M -0.401; N 0.078; P 0.067; Q -0.133; R 0.021; S -0.158; T -0.047; W -0.324; Y -0.564
A17: C -0.278; D -0.133; E -0.082; F -0.071; G -0.19; H -0.044; I -0.012; K 0.196; L -0.071; M -0.169; N -0.185; P -0.472; Q -0.004; R 0.083; T 0.035; V 0.017; W -0.234; Y -0.087
I18: A -0.607; C -0.685; D -1.11; E -0.837; F -0.746; G -0.966; H -0.902; K -1.18; L -0.396; N -0.72; P -1.03; Q -0.833; R -0.707; S -0.682; T -0.721; V 0.012; W -0.692; Y 0.02
K19: A -0.051; D -1.13; E -0.256; F -0.139; H -0.197; I -0.179; L -0.166; M 0.027; N -0.557; P -1.03; Q 0.069; R -0.102; S -0.127; T -0.221; V -0.122; W -0.519; Y -0.151
G20: A 0.129; C -0.116; D 0.192; E 0.085; F -0.073; H 0.013; I -0.01; K -0.129; L 0.145; M -0.222; P -0.327; Q 0.224; S 0.1; T 0.038; V 0.039; W -0.455; Y -0.361
Q21: A -0.051; C -0.256; D -0.126; F -0.444; G -0.289; H -0.175; I -0.346; K 0.029; L -0.219; M -0.199; N 0.048; P -0.722; R 0.042; S -0.029; T -0.011; V -0.321; W -0.388; Y -0.338
N22: A -0.476; D -0.41; E -0.443; F -0.298; H 0.037; I -0.515; K -0.382; M -0.437; P -0.824; Q -0.182; R -0.044; S -0.451; T -0.293; V -0.149; Y -0.121
P23: A -0.32; C -0.627; D -0.922; E -0.558; F -1.16; H -0.615; I -0.521; K -0.37; L -0.689; M -0.743; N -0.251; Q -0.241; R -0.454; S -0.335; T -0.898; V -0.677; W -0.94; Y -0.948
N24: A -0.183; C -0.331; D -0.055; E -0.001; F -0.154; G 0.096; H 0.028; I -0.879; K 0.016; L -0.304; M -0.095; P -0.848; Q -0.353; R -0.063; S 0.034; T 0.026; V -0.591; W -0.509; Y -0.563
A25: C -0.369; G -0.696; H -0.299; I -0.121; L -0.155; M -0.212; N -0.677; P -0.874; Q -0.328; R -0.088; S -0.287; T -0.363; V -0.076

From the Human Domainome abundance scans (Beltran et al. 2025)
